Reference: PMC11180174 (Nature Communications, 2024)

How the values were obtained:
Assay in all cases: BLI
Conditions in all cases: both partners purified
[1] = molecular target: T1, SARS-CoV-2 Omicron BF.7 RBD, His-tagged (SARS-CoV-2 Omicron BF.7, R346T)
T1 construct: not shown: 8xHis, C-terminal, kept

[2] = molecular target: T2, SARS-CoV-2 Omicron XBB RBD, His-tagged (SARS-CoV-2 Omicron XBB, R346T | L368I | V445P | F486S | F490S)
T2 construct: not shown: 8xHis, C-terminal, kept

[3] = molecular target: T3, SARS-CoV-2 Delta RBD, His-tagged (SARS-CoV-2 Delta (B.1.617.2), strain)
T3 construct: not shown: 8xHis, C-terminal, kept

[4] = molecular target: T4, SARS-CoV-2 Omicron XBB.1.16 RBD, His-tagged (SARS-CoV-2 Omicron XBB.1.16, R346T | L368I | V445P | T478R | F486P | F490S)
T4 construct: not shown: 8xHis, C-terminal, kept

[5] = molecular target: T5, SARS-CoV-2 Omicron BA.5 RBD, His-tagged (SARS-CoV-2 Omicron BA.5, strain)
T5 construct: not shown: 8xHis, C-terminal, kept

[6] = molecular target: T6, SARS-CoV-2 Omicron BA.1 RBD, His-tagged (SARS-CoV-2 Omicron BA.1, strain)
T6 construct: not shown: 8xHis, C-terminal, kept

[7] = molecular target: T7, SARS-CoV-2 Delta spike RBD-His (SARS-CoV-2 Delta (B.1.617.2), strain)
T7 construct: not shown: His8, C-terminal, kept

[8] = molecular target: T8, SARS-CoV-2 Omicron XBB spike RBD-His (SARS-CoV-2 Omicron XBB, strain)
T8 construct: not shown: His8, C-terminal, kept

[9] = molecular target: T9, SARS-CoV-2 Omicron XBB.1.16 spike RBD-His (SARS-CoV-2 Omicron XBB.1.16, R346T | L368I | V445P | F486P | F490S | T478R)
T9 construct: not shown: His8, C-terminal, kept

[10] = molecular target: T10, SARS-CoV-2 Omicron BF.7 spike RBD-His (SARS-CoV-2 Omicron BF.7, strain)
T10 construct: not shown: His8, C-terminal, kept

[11] = molecular target: T11, SARS-CoV-2 Omicron BA.5 spike RBD-His (SARS-CoV-2 Omicron BA.5, strain)
T11 construct: not shown: His8, C-terminal, kept

[12] = molecular target: T12, SARS-CoV-2 Omicron BA.1 spike RBD-His (SARS-CoV-2 Omicron BA.1, strain)
T12 construct: not shown: His8, C-terminal, kept

Row | Binder | Kd [1] [nM] | koff [1] [s⁻¹] | kon [1] [M⁻¹ s⁻¹] | Kd [3] [nM] | koff [3] [s⁻¹] | kon [3] [M⁻¹ s⁻¹] | Kd [7] [nM] | koff [7] [s⁻¹] | kon [7] [M⁻¹ s⁻¹] | Kd [10] [nM] | koff [10] [s⁻¹] | kon [10] [M⁻¹ s⁻¹] | further results
1 | neutralizing antibody 7F3 (antibody, V domains shown) VH: EVQLVESGGGLVKPGRSLRLSCTASGFTFGDYAMSWFRQAPGKGLEWVGFIRSKAYGGTTEYAASVKGRFTISRDDSKSIAYLQMNSLKTEDTAVYYCTRDRYARYDILTGLSPAGADYFYYAMDVWGQGTTVTVSS VL: EIVLTQSPATLSLSPGERATLSCRASQSVSSYLAWYQQKPGQAPRLLIYDASNRATGIPARFSGSGSGTDFTLTISSLEPEDFAVYYCQQRSNWPQYTFGQGTKLEIK | 1280 | 0.0412 | 32100 | 20.8 | 0.000914 | 44000 | – | – | – | – | – | – | Kd [2]: 19.9 nM; koff [2]: 0.00113 s⁻¹; kon [2]: 56600 M⁻¹ s⁻¹; Kd [4]: 28.6 nM; koff [4]: 0.0048 s⁻¹; kon [4]: 168000 M⁻¹ s⁻¹
2 | LY-CoV1404 (also known as bebtelovimab) (antibody, V domains shown, control antibody) VH: QITLKESGPTLVKPTQTLTLTCTFSGFSLSISGVGVGWLRQPPGKALEWLALIYWDDDKRYSPSLKSRLTISKDTSKNQVVLKMTNIDPVDTATYYCAHHSISTIFDHWGQGTLVTVSS VL: QSALTQPASVSGSPGQSITISCTATSSDVGDYNYVSWYQQHPGKAPKLMIFEVSDRPSGISNRFSGSKSGNTASLTISGLQAEDEADYYCSSYTTSSAVFGGGTKLTVL | < 0.001 | < 1e-07 | 46800 | < 0.001 | < 1e-07 | 244000 | – | – | – | – | – | – | Kd [5]: < 0.001 nM; koff [5]: < 1e-07 s⁻¹; kon [5]: 40500 M⁻¹ s⁻¹; Kd [6]: < 0.001 nM; koff [6]: < 1e-07 s⁻¹; kon [6]: 32200 M⁻¹ s⁻¹
3 | 7F3 neutralizing antibody (IgG) (antibody, V domains shown) VH: EVQLVESGGGLVKPGRSLRLSCTASGFTFGDYAMSWFRQAPGKGLEWVGFIRSKAYGGTTEYAASVKGRFTISRDDSKSIAYLQMNSLKTEDTAVYYCTRDRYARYDILTGLSPAGADYFYYAMDVWGQGTTVTVSS VL: EIVLTQSPATLSLSPGERATLSCRASQSVSSYLAWYQQKPGQAPRLLIYDASNRATGIPARFSGSGSGTDFTLTISSLEPEDFAVYYCQQRSNWPQYTFGQGTKLEIK | – | – | – | – | – | – | 20.8 | 0.000914 | 44000 | 1280 | 0.0412 | 32100 | Kd [8]: 19.9 nM; koff [8]: 0.00112 s⁻¹; kon [8]: 56600 M⁻¹ s⁻¹; Kd [9]: 28.6 nM; koff [9]: 0.0048 s⁻¹; kon [9]: 168000 M⁻¹ s⁻¹
4 | LY-CoV1404 (bebtelovimab) (antibody, V domains shown) VH: QITLKESGPTLVKPTQTLTLTCTFSGFSLSISGVGVGWLRQPPGKALEWLALIYWDDDKRYSPSLKSRLTISKDTSKNQVVLKMTNIDPVDTATYYCAHHSISTIFDHWGQGTLVTVSS VL: QSALTQPASVSGSPGQSITISCTATSSDVGDYNYVSWYQQHPGKAPKLMIFEVSDRPSGISNRFSGSKSGNTASLTISGLQAEDEADYYCSSYTTSSAVFGGGTKLTVL | – | – | – | – | – | – | < 0.001 | < 1e-07 | 244000 | < 0.001 | < 1e-07 | 46800 | Kd [11]: < 0.001 nM; koff [11]: < 1e-07 s⁻¹; kon [11]: 40400 M⁻¹ s⁻¹; Kd [12]: < 0.001 nM; koff [12]: < 1e-07 s⁻¹; kon [12]: 32200 M⁻¹ s⁻¹
